Data from the supplement of paper PMC9112550, “Optimization of the antimicrobial peptide Bac7 by deep mutational scanning” (BMC Biology, 2022).

test system: Escherichia coli TOP10; assay: shrunken log2 fold change of peptide-encoding DNA abundance (4.5 h post-induction vs induction); higher = less antimicrobial activity (less host growth inhibition); conditions: time post-induction: 4.5 h; library: site-saturation at positions 5, 18, 19, 20
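Also: peptides expressed intracellularly from a pBAD plasmid library in pooled LB shake-flask culture, induced with 0.3% L-arabinose, DNA abundance read by NGS, three biological replicates, DESeq2 with apeglm shrinkage.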

Row | Sequence | shrunken log2 fold change
1 | RRIRCRPPRLPRPRPRPPRVPRP | 0.935
2 | RRIRYRPPRLPRPRPRPKGVPRP | 0.028
3 | RRIRLRPPRLPRPRPRPWALPRP | 0.0419
4 | RRIRPRPPRLPRPRPRPHIVPRP | -0.481
5 | RRIRPRPPRLPRPRPRPNKNPRP | -0.24
6 | RRIRLRPPRLPRPRPRPQRRPRP | 0.0742
7 | RRIRRRPPRLPRPRPRPHWSPRP | -0.0676
8 | RRIRWRPPRLPRPRPRPAWLPRP | 0.61
9 | RRIRVRPPRLPRPRPRPQVCPRP | -0.0138
10 | RRIRDRPPRLPRPRPRPHSCPRP | -0.00804
11 | RRIRKRPPRLPRPRPRPRMYPRP | 0.155
12 | RRIRCRPPRLPRPRPRPPPLPRP | 1.15
13 | RRIRNRPPRLPRPRPRPNPVPRP | -0.139
14 | RRIRARPPRLPRPRPRPGMPPRP | 0.128
15 | RRIRMRPPRLPRPRPRPHVRPRP | 0.231
16 | RRIRHRPPRLPRPRPRPIMSPRP | -0.161
17 | RRIRFRPPRLPRPRPRPRGNPRP | -0.0828
18 | RRIRSRPPRLPRPRPRPNRYPRP | -0.296
19 | RRIRERPPRLPRPRPRPHVRPRP | -0.105
20 | RRIRNRPPRLPRPRPRPVFPPRP | -0.000239
21 | RRIRQRPPRLPRPRPRPTVEPRP | 0.186
22 | RRIRLRPPRLPRPRPRPNIEPRP | -0.304
23 | RRIRSRPPRLPRPRPRPEYRPRP | 0.2
24 | RRIRSRPPRLPRPRPRPLGHPRP | -0.051
25 | RRIRARPPRLPRPRPRPGNMPRP | -0.0598

Row | Sequence | shrunken log2 fold change
26 | RRIRWRPPRLPRPRPRPRQCPRP | 0.137
27 | RRIRRRPPRLPRPRPRPEWWPRP | -0.0131
28 | RRIRLRPPRLPRPRPRPPNPPRP | 0.423
29 | RRIRPRPPRLPRPRPRPYMMPRP | -0.309
30 | RRIRDRPPRLPRPRPRPHYWPRP | -0.282
31 | RRIRRRPPRLPRPRPRPSHFPRP | -0.262
32 | RRIRARPPRLPRPRPRPYRNPRP | -0.222
33 | RRIRCRPPRLPRPRPRPKYKPRP | -0.834
34 | RRIRNRPPRLPRPRPRPYPYPRP | -0.242
35 | RRIRYRPPRLPRPRPRPEPGPRP | 0.215
36 | RRIRIRPPRLPRPRPRPTQVPRP | 0.00035
37 | RRIRQRPPRLPRPRPRPEIAPRP | -0.151
38 | RRIRWRPPRLPRPRPRPNYNPRP | -0.752
39 | RRIRKRPPRLPRPRPRPITDPRP | -0.128
40 | RRIRTRPPRLPRPRPRPVLVPRP | -0.106
41 | RRIRKRPPRLPRPRPRPNTAPRP | 0.159
42 | RRIRARPPRLPRPRPRPCVRPRP | 0.135
43 | RRIRSRPPRLPRPRPRPPYPPRP | 0.0516
44 | RRIRKRPPRLPRPRPRPWFGPRP | 0.0558
45 | RRIRHRPPRLPRPRPRPCFAPRP | 0.0434
46 | RRIRCRPPRLPRPRPRPTFLPRP | -0.475
47 | RRIRHRPPRLPRPRPRPSDPPRP | -0.0545
48 | RRIRPRPPRLPRPRPRPGMHPRP | 0.206
49 | RRIRQRPPRLPRPRPRPPMAPRP | 0.0822
50 | RRIRVRPPRLPRPRPRPQNSPRP | -0.802

Row | Sequence | shrunken log2 fold change
51 | RRIRSRPPRLPRPRPRPLNVPRP | -0.0872
52 | RRIRGRPPRLPRPRPRPAYVPRP | -0.0723
53 | RRIRLRPPRLPRPRPRPPQEPRP | 0.0145
54 | RRIRHRPPRLPRPRPRPECSPRP | -0.0101
55 | RRIRTRPPRLPRPRPRPYIVPRP | -1.04
56 | RRIRLRPPRLPRPRPRPRQDPRP | 0.152
57 | RRIRDRPPRLPRPRPRPPFAPRP | 0.427
58 | RRIRMRPPRLPRPRPRPDYWPRP | 0.441
59 | RRIRARPPRLPRPRPRPANHPRP | -0.129
60 | RRIRIRPPRLPRPRPRPYENPRP | -0.255
61 | RRIRNRPPRLPRPRPRPVDHPRP | -0.01
62 | RRIRIRPPRLPRPRPRPQKQPRP | -0.128
63 | RRIRIRPPRLPRPRPRPHWLPRP | -0.49
64 | RRIRYRPPRLPRPRPRPDHGPRP | -0.0075
65 | RRIRWRPPRLPRPRPRPKSHPRP | 0.249
66 | RRIRERPPRLPRPRPRPSSPPRP | -0.824
67 | RRIRERPPRLPRPRPRPRAPPRP | 0.524
68 | RRIRVRPPRLPRPRPRPDYFPRP | -0.163
69 | RRIRLRPPRLPRPRPRPKPYPRP | 0.00713
70 | RRIRTRPPRLPRPRPRPIPYPRP | -0.0288
71 | RRIRKRPPRLPRPRPRPETSPRP | 1.02
72 | RRIRLRPPRLPRPRPRPAFTPRP | 0.238
73 | RRIRIRPPRLPRPRPRPAMTPRP | -0.366
74 | RRIRLRPPRLPRPRPRPWCRPRP | 0.0427
75 | RRIRKRPPRLPRPRPRPWEKPRP | -0.00969
